Assays:
[1] = tested on: B cells; test: Transwell chemotaxis of spleen B cells; type: cell-based, mouse
Protocol: (§1) FIGS. 1(a)-(g). Chemotactic activity of BLC on leukocyte subtypes. Results are expressed as the percentage of input cells of each subtype migrating to the lower chamber of a Transwell filter. FIG. 1a show migration of B cells; FIG. 1b, CD4+T cells; FIG. 1c, CD8+T cells; FIG. 1d; granulocytes; and FIG. 1e, monocytes/macrophages to BLC. Positive controls are SDF1a (FIGS. 1a, b, c, e) and IL8 (FIG. 1d). […] BLC was added to the upper or lower chamber of the apparatus as indicated. […] Data points with error bars represent the mean 1 s.d. for triplicates; individual data points are shown for duplicates. Each experiment was performed a minimum of two times.
(§2) To test this possibility, chemotaxis assays were performed with lymphocytes from mouse spleen and baculovirus-expressed BLC estimated to bc greater than 95% pure by silver staining. […] An alternative possibility is that high potency is not rcquired for a chemokine that is expressed constitutively within lymphoid tissues.
(§3) Chemotaxis. Lymphocytes and macrophages were obtained from spleens of C57BL/6 mice. For macrophage chemotaxis, B cells were depleted by passage over a MACS column (Milteny Biotec, Auburn, Calif.) after incubation with biotinylated anti-B220 antibodies and streptavidin-coated magnetic beads. Granulocytes were obtained from mouse bone marrow suspensions. Mouse BLR1 transfected Jurkat cells were obtained by transfection with pREP4 containing the mouse BLR1 coding region (16), isolated by RT-PCR from mouse spleen RNA, and an amino terminal prolactin leader sequence and FLAG epitope (23). Positive clones were identified using the anti-FLAG antibody M1 (Kodak). Chemotaxis assays were performed as previously described (15) and subsets of migrating cells were identified by flow cytometry using antibodies specific for B220, CD4, CD8 (Pharmingen, San Diego, Calif.) and Mac-1 (Caltag, South San Francisco, Calif.). Granulocytes were identified by their characteristic large side scatter profile. In some experiments, cells were preincubated with 100 ng/ml pertussis toxin (List Biol. Labs, Campbell, Calif.) for 2 hrs at 37° C. IL-8 (R&D Systems, Minneapolis, Minn.) and synthetic human SDF1 a (N33A) synthesized by native chemical ligation (Gryphon Sciences, South San Francisco) were used as positive controls. SDF1a (N33A) has identical activity to native human and mouse SDF1a (24, 25).

[2] = tested on: spleen monocytes/macrophages; test: Transwell chemotaxis of spleen monocytes/macrophages; type: cell-based, mouse; details: FIG. 1e
Protocol: as §1, §2
(§4) Chemotaxis. Lymphocytes and macrophages were obtained from spleens of C57BL/6 mice. For macrophage chemotaxis, B cells were depleted by passage over a MACS column (Milteny Biotec, Auburn, Calif.) after incubation with biotinylated anti-B220 antibodies and streptavidin-coated magnetic beads. Granulocytes were obtained from mouse bone marrow suspensions. […]

[3] = tested on: BLR1- negative cells; test: Chemotaxis of BLR1-negative Jurkat cells; type: cell-based
Protocol: (§5) We therefore tested whether BLC could signal through BLR1. […] Using BLR1 transfected 300-19 pre-B cells a more complete dose response curve was obtained showing that the response to BLC is saturable (FIG. 2e). […] We next tested the ability of BLC to stimulate chemotaxis through BLR1.
as §3, with “In some experiments, cells were preincubated with 100 ng/ml pertussis toxin (List Biol. Labs, Campbell, Calif.) for 2 hrs at 37° C. IL-8 (R&D Systems, Minneapolis, Minn.) and synthetic human SDF1 a (N33A) synthesized by native chemical ligation (Gryphon Sciences, South San Francisco) were used as positive controls. SDF1a (N33A) has identical activity to native human and mouse SDF1a (24, 25).” left out

[4] = tested on: CCR2; test: Calcium flux in 293 cells transfected with CCR2; type: cell-based
Protocol: as §5
(§6) Calcium fluorimetry on transfected 293 and 300-19 cells. Native mouse BLR1 was subcloned into pBK-CMV (Stratagene) and used to transfect HEK 293 cells and 300-19 pre-B cells. G418-resistant clones were tested for BLR1 expression using an affinity purified rabbit anti-mouse antiserum that is specific for the BLR1 amino terminus. HEK293 cells expressing CCR1, CCR2 and CXCR2 were from the Cardiovascular Research Institute, UCSF. Ca2+-mobilization studies were performed as described (26) using a Hitachi 4500 spectrometer. Intracellular calcium concentrations were calculated using the Hitachi 4500 Intracellular Cation Measurement program.

[5] = tested on: CXCR2; test: Calcium flux in 293 cells transfected with CXCR2; type: cell-based; details: 293 cells transfected with CXCR2, FIG. 2d
Text: (§7) FIG. 2(a)-(f). BLR1-mediated calcium mobilization and chemotaxis in response to BLC. HEK 293 cells, stably transfected with the indicated chemokine receptors (FIGS. 2a-d), were loaded with the calcium probe Indo-1 and assayed by spectrofluorimetry for changes in intracellular calcium in response to BLC. FIG. 2a, Calcium flux as a function of BLC concentration (nM). FIG. 2b, Specificity of the response of BLR1 to BLC. FIG. 2c, Lack of response to BLC in CCR1-transfected cells. FIG. 2d, Lack of response to BLC in CXCR2-transfected cells. FIG. 2e, Percentage of maximal calcium flux as a function of BLC concentration in BLR1-transfected 300-19 cells. FIG. 2f, Chemotactic response of BLR1-transfected Jurkat cells to BLC. Results of chemotaxis are expressed as in FIG. 1.
as §5
(§8) Calcium fluorimetry on transfected 293 and 300-19 cells. Native mouse BLR1 was subcloned into pBK-CMV (Stratagene) and used to transfect HEK 293 cells and 300-19 pre-B cells. […] Intracellular calcium concentrations were calculated using the Hitachi 4500 Intracellular Cation Measurement program.

[6] = tested on: granulocytes; test: Transwell chemotaxis of bone marrow granulocytes; type: cell-based, mouse; details: FIG. 1d
Protocol: as §1, §2, §4

[7] = tested on: CCR1; test: Calcium flux in 293 cells transfected with CCR1; type: cell-based; details: 293 cells transfected with CCR1, FIG. 2c
Text: as §7, §5, §8

[8] = tested on: CD4 and CD8 T cells; test: Transwell chemotaxis of spleen CD4 and CD8 T cells; type: cell-based; details: mouse spleen lymphocytes, FIG. 1b, c
Protocol: as §1, §2, §4

[9] = tested on: BLR1; test: Chemotaxis of BLR1 transfected Jurkat T cells; type: cell-based, mouse; details: Jurkat T cells transfected with BLR1
Text: as §7, §5, §4

[10] = tested on: Control transfectants; test: Calcium flux in control transfectants of 293 and 300-19 cells; type: cell-based; details: control transfectants of either cell line (293, 300-19)
Protocol: as §5, §6

[11] = tested on: mouse BLR1; test: Calcium flux in HEK 293 cells stably transfected with mouse BLR1; type: cell-based; details: HEK 293 cells stably transfected with mouse BLR1, FIG. 2a, b
Text: as §7, §5, §8

[12] = tested on: BLR1; test: Calcium flux in BLR1 transfected 300-19 pre-B cells; type: cell-based, mouse; details: FIG. 2e
Text: as §7, §5, §8

pertussis toxin [reference compound] was tested, and the “BLC-induced migration of pertussis toxin pretreated B cells” value ([1]; preincubated with 100 ng/ml pertussis toxin for 2 hrs at 37° C., FIG. 1g) was “failed to migrate”.

B1: BLC: novel CXC chemokine; baculovirus-expressed mouse BLC (SEQ ID NO:2), mature protein starting at isoleucine 22 (protein)
chain: MRLSTATLLLLLASCLSPGHGILEAHYTNLKCRCSGVISTVVGLNIIDRIQVTPPGNGCPKTEVVIWTKMKKVICVNPRAKWLQRLLRHVQSKSLSSTPQAPVSKRRAA
For B1, the “chemotactic activity for spleen monocytes/macrophages” value [2] was “weak but reproducible chemotactic activity”, the chemotactic response [3] was “failed to respond” and the calcium flux [4] was “failed to stimulate a calcium flux”. The calcium flux [5] was “failed to stimulate a calcium flux”, the “chemotactic activity towards granulocytes” value [6] was “no chemotactic activity” and the calcium flux [7] was “failed to stimulate a calcium flux”. The “potency as a B cell attractant” value ([1]; baculovirus expressed protein, compared with most chemokines) was “potency less than that of most chemokines”, the “migration of cells in the absence of a gradient” value ([1]; cells incubated with BLC in the absence of a gradient, FIG. 1f) was “failed to migrate” and the “chemotactic response in B cells” value ([1]; mouse spleen lymphocytes, FIG. 1a) was “strong chemotactic response”. The “chemotactic activity towards CD4 and CD8 T cells” value [8] was “limited activity”, the chemotactic response [9] was “showed a chemotactic response” and the calcium flux response [10] was “did not respond”. The calcium flux [11] was “dose dependent calcium flux” and the “calcium flux dose response” value [12] was “saturable”.

— US6110695A, “Modulating the interaction of the chemokine, B Lymphocyte Hemoattractant, and its Receptor, BLR1” (The Regents of the University of California, priority 1997, dated 2000)
